This is an account of results in IntAct's records for PubMed 9537418.

B1: Merlin (Homo sapiens), P35240-3 (parent)
chain: MAGAIASRMSFSSLKRKQPKTFTVRIVTMDAEMEFNCEMKWKGKDLFDLVCRTLGLRETWFFGLQYTIKDTVAWLKMDKKVLDHDVSKEEPVTFHFLAKFYPENAEEELVQEITQHLFFLQVKKQILDEKIYCPPEASVLLASYAVQAKYGDYDPSVHKRGFLAQEELLPKRVINLYQMTPEMWEERITAWYAEHRGRARDEAEMEYLKIAQDLEMYGVNYFAIRNKKGTELLLGVDALGLHIYDPENRLTPKISFPWNEIRNISYSDKEFTIKPLDKKIDVFKFNSSKLRVNKLILQLCIGNHDLFMRRRKADSLEVQQMKAQAREEKARKQMERQRLAREKQMREEAERTRDELERRLLQMKEEATMANEALMRSEETADLLAEKAQITEEEAKLLAQKAAEAEQEMQRIKATAIRTEEEKRLMEQKVLEAEVLALKMAEESERRAKEADQLKQDLQEAREAERRAKQKLLEIATKPTYPPMNPIPAPLPPDIPSFNLIGDSLSFDFKDTDMKRLSMEIEKEKVEYMEKSKHLQEQLNELKTEIEALKLKERETALDILHNENSDRGGSSKHNTIKKPQAQGRRPICI

Variants of B1 are the subject of the assay. The note with it: with sptb2_human SPTBN1, Q01082.
sptb2_human SPTBN1, Q01082, sequence (Q01082 whole entry): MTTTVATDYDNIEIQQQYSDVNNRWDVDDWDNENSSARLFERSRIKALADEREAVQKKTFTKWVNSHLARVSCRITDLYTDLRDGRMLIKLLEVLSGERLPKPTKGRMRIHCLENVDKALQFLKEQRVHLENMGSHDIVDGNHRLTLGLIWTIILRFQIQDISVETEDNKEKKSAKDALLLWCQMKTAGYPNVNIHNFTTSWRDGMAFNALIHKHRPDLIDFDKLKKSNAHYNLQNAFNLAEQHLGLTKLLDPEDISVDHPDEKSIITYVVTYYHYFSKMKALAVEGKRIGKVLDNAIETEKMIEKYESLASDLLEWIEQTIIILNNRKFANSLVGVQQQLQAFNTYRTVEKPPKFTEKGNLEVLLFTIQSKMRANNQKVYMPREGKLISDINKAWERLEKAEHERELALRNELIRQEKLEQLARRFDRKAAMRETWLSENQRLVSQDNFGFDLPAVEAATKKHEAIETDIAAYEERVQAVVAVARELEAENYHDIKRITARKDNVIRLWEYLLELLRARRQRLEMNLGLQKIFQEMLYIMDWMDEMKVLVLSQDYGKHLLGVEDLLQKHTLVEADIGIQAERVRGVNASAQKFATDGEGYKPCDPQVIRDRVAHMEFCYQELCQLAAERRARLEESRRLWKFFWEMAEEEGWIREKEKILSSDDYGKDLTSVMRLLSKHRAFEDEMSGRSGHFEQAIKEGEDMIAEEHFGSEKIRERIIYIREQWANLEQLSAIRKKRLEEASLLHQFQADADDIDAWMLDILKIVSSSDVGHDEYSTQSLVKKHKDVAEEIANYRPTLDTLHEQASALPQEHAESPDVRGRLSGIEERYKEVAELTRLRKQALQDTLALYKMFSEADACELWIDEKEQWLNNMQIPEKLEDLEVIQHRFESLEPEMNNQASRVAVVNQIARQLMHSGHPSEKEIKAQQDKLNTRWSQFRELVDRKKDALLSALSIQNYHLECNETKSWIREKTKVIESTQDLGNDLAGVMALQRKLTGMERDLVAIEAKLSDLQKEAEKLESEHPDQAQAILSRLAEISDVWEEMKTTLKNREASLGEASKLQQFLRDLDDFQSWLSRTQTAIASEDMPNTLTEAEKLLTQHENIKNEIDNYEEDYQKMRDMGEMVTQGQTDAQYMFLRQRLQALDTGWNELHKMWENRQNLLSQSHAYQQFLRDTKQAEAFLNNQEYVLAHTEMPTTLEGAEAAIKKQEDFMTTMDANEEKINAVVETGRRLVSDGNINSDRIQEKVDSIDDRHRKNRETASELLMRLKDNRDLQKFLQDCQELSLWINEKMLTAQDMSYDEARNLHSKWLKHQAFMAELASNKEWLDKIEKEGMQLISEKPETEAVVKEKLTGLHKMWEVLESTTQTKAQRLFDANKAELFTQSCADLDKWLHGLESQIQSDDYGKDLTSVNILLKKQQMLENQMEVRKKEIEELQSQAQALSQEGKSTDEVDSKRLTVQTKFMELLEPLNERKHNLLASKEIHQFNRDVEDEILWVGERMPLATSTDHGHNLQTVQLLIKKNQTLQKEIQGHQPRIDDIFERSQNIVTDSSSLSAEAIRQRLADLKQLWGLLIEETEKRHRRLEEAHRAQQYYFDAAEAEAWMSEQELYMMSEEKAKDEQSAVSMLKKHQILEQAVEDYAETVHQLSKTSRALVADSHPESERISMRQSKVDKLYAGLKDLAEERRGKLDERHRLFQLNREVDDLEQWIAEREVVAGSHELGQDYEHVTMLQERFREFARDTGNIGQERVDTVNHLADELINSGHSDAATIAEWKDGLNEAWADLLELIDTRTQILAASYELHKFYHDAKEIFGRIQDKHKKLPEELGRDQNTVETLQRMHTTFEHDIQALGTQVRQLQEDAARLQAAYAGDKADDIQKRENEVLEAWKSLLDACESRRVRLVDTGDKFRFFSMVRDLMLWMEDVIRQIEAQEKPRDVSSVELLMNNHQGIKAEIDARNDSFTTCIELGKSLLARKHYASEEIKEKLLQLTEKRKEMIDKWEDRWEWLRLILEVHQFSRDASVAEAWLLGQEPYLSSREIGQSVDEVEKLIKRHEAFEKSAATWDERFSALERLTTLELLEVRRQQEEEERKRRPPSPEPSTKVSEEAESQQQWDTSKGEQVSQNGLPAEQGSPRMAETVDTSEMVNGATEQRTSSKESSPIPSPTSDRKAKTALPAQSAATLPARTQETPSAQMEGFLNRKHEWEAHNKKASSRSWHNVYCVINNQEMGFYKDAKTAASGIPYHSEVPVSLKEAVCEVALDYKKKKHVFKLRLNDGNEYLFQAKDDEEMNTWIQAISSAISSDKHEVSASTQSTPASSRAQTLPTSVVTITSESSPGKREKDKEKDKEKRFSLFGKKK
On to L360P, for which the “effect of a mutation on the interaction” value is given as “decreasing interaction strength”. For L535P the value was “decreasing interaction strength”; for Q538P, “disrupting interaction strength”.
